Results taken from the RNAGym collection of RNA variant scans (doi:10.1093/molbev/msab373).

B1: Azoarcus group I ribozyme (parent)
chain: GUGCCUUGCGCCGGGAAACCACGCAAGGGAUGGUGUCAAAUUCGGCGAAACCUAAGCGCCCGCCCGGGCGUAUGGCAACGCCGAGCCAAGCUUCGGCGCCUGCGCCGAUGAAGGUGUAGAGACUAGACGGCACCCACCUAAGGCAAACGCUAUGGUGAAGGCAUAGUCCAGGGAGUGGCGAAAGUCACACAAACCGG

Variants of: B1
Test: reverse-splicing fitness (ratio to wild type); higher = more active; in vitro selection; Mg2+ level not given
In short: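 An in vitro group I ribozyme library with randomized positions was T7-transcribed and gel-purified. In triplicate, 10 pmol RNA in EPPS pH 7.5 was reacted with 50 pmoles of a 30-nt RNA substrate for 1 h at 37 °C across several added MgCl2 levels (1–48 mM), then stopped with EDTA. Products were reverse transcribed from a substrate-complementary primer, PCR-amplified and sequenced (HiSeq 4000). Fitness is a variant's read proportion after selection over that before, normalised to wild type.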

Variant	reverse-splicing fitness
A120U A145U C150A U176C	0.141
A120U A145U C150A U176G	0.0665
A120U A145U C150A U176A	0.151
A120G C150U C169A	0.29
A120G C150U C169U	0.284
A120G C150U C169G	0.419
A120U A145C C150G C169G U176C	0.00281
A120U A145C C150G C169G U176A	0.00551
A120U A145C C150G C169G U176G	0.00252
A120G A145U U176C	0.269
A120G A145U U176A	0.197
A120G A145U U176G	0.0162
A120U A145G C150A C169A U176A	0.00533
A120U A145G C150A C169A U176G	0.00241
A120U A145G C150A C169A U176C	0.00372
A120G A145U C150U U176A	0.155
A120G A145U C150U U176G	0.0161
A120G A145U C150U U176C	0.184
A120G A145U C169G U176G	0.0156
A120G A145U C169G U176A	0.206
A120G A145U C169G U176C	0.264
A120G C150U C169G U176A	0.157
A120G C150U C169G U176C	0.195
A120G C150U C169G U176G	0.00753

Variant	reverse-splicing fitness
A120U A145C C150G U176A	0.132
A120U A145C C150G U176C	0.121
A120U A145C C150G U176G	0.0278
A120G A145G C169G U176A	0.221
A120G A145G C169G U176G	0.0103
A120G A145G C169G U176C	0.268
A120G C150G U176A	0.0287
A120G C150G U176G	0.00499
A120G C150G U176C	0.0392
A120U A145G C150G C169U U176C	0.0205
A120U A145G C150G C169U U176A	0.00909
A120U A145G C150G C169U U176G	0.0045
A120U A145C C169A U176C	0.00401
A120U A145C C169A U176A	0.00275
A120U A145C C169A U176G	0.00153
A120G C150A C169A U176A	0.0363
A120G C150A C169A U176C	0.0393
A120G C150A C169A U176G	0.00569
A120U A145G C150A C169U U176G	0.00424
A120U A145G C150A C169U U176A	0.0235
A120U A145G C150A C169U U176C	0.032
A120G A145U C150U C169G U176A	0.157
A120G A145U C150U C169G U176C	0.207
A120G A145U C150U C169G U176G	0.00892

Variant	reverse-splicing fitness
A120G C150A C169U U176A	0.0635
A120G C150A C169U U176G	0.00851
A120G C150A C169U U176C	0.0621
A120U A145G C169U U176G	0.0132
A120U A145G C169U U176C	0.126
A120U A145G C169U U176A	0.0927
A120G A145U C169U U176A	0.174
A120G A145U C169U U176G	0.0221
A120G A145U C169U U176C	0.194
A120U A145U C150A C169A U176C	0.00256
A120U A145U C150A C169A U176A	0.0027
A120U A145U C150A C169A U176G	0.00156
A120G A145U C150A C169G U176C	0.061
A120G A145U C150A C169G U176A	0.0455
A120G A145U C150A C169G U176G	0.00649
A120U A145G C150G C169G	0.0353
A120U A145G C150G C169A	0.00998
A120U A145G C150G C169U	0.0537
A120U A145U C150U C169U U176C	0.0952
A120U A145U C150U C169U U176A	0.059
A120U A145G C169A U176A	0.00474
A120U A145G C169A U176C	0.00664
A120U A145G C169A U176G	0.00148
A120U A145G C150U C169U	0.256

Variant	reverse-splicing fitness
A120U A145G C150U C169G	0.199
A120U A145G C150U C169A	0.0163
A120U A145G C150A C169U	0.0612
A120U A145G C150A C169G	0.0459
A120U A145G C150A C169A	0.00622
A120G C150A C169G U176A	0.0606
A120G C150A C169G U176G	0.00584
A120G C150A C169G U176C	0.0784
A120U A145U C150G C169A U176G	0.00241
A120U A145U C150G C169A U176A	0.00344
A120U A145U C150G C169A U176C	0.00335
A120U A145G C150A U176C	0.218
A120U A145G C150A U176A	0.222
A120U A145G C150A U176G	0.063
A120G A145U C150A U176G	0.00673
A120G A145U C150A U176C	0.0519
A120G A145U C150A U176A	0.0378
A120U A145C C169U U176A	0.0854
A120U A145C C169U U176G	0.0133
A120U A145C C169U U176C	0.1
A120U A145G C169G U176C	0.0902
A120U A145G C169G U176G	0.00281
A120U A145G C169G U176A	0.0414
A120G A145U C150U C169U U176C	0.162

Variant	reverse-splicing fitness
A120G A145U C150U C169U U176A	0.14
A120G A145U C150U C169U U176G	0.0135
A120U A145C C169G U176C	0.0504
A120U A145C C169G U176A	0.0356
A120U A145C C169G U176G	0.00318
A120G A145G U176G	0.0157
A120G A145G U176A	0.193
A120G A145G U176C	0.246
A120G C150G C169U U176A	0.0245
A120G C150G C169U U176G	0.00662
A120G C150G C169U U176C	0.0422
A120G C169G U176C	0.261
A120G C169G U176A	0.209
A120G C169G U176G	0.0117
A120G A145U C150G C169G U176A	0.024
A120G A145U C150G C169G U176G	0.00487
A120G A145U C150G C169G U176C	0.011
A120U A145C C150A C169G U176C	0.0032
A120U A145C C150A C169G U176G	0.00221
A120U A145C C150A C169G U176A	0.00491
A120G A145U C150A C169U	0.0677
A120G A145U C150A C169A	0.0459
A120G A145U C150A C169G	0.0841
A120U A145U C150G C169G U176C	0.00304

Variant	reverse-splicing fitness
A120U A145U C150G C169G U176G	0.00208
A120U A145U C150G C169G U176A	0.00507
A120G A145G C150U	0.436
A120U A145C C150G	0.293
A120U A145C C150A	0.116
A120U A145C C150U	0.459
A120G C150U C169U U176G	0.011
A120G C150U C169U U176A	0.136
A120G C150U C169U U176C	0.159
A120G C150A C169G	0.0903
A120G C150A C169U	0.071
A120G C150A C169A	0.0602
A120U A145U C150G C169G	0.0307
A120U A145U C150G C169A	0.00425
A120U A145U C150G C169U	0.0429
A120G C150U C169A U176G	0.00612
A120G C150U C169A U176C	0.126
A120G C150U C169A U176A	0.0776
A120U A145C C150A U176A	0.0864
A120U A145C C150A U176C	0.061
A120U A145C C150A U176G	0.0538
A120U A145G C150U C169U U176A	0.0753
A120U A145G C150U C169U U176C	0.108
A120U A145G C150U C169U U176G	0.00649

Variant	reverse-splicing fitness
A120G A145U C150A C169A U176G	0.00487
A120G A145U C150A C169A U176A	0.0229
A120G A145U C150A C169A U176C	0.035
A120G A145U C169U	0.446
A120G A145U C169A	0.447
A120G A145U C169G	0.618
A120G A145G C169U U176A	0.172
A120G A145G C169U U176G	0.0155
A120G A145G C169U U176C	0.199
A120U A145G C150G U176G	0.013
A120U A145G C150G U176C	0.146
A120U A145G C150G U176A	0.084
A120U A145C C150U C169G U176C	0.0135
A120U A145C C150U C169G U176G	0.00233
A120U A145C C150U C169G U176A	0.0156
A120U A145G C150U C169G U176G	0.00281
A120U A145G C150U C169G U176C	0.063
A120U A145G C150U C169G U176A	0.0289
A120G C150U U176C	0.164
A120G C150U U176G	0.0157
A120G C150U U176A	0.125
A120G C150G C169G U176A	0.0132
A120G C150G C169G U176C	0.00733
